From PMC3048740

Experiments:
YFP-Stim1 (human) = YFP-Stim1 (human) (UniProt Q13586); experiment: FRET or BRET
CFP-Stim1 (human) = CFP-Stim1 (human) (UniProt Q13586); experiment: FRET or BRET

FRET reduction against WT-Orai3 with Stim1 (YFP-Stim1 (human)) [%]	FRET reduction against WT-Orai3 with Stim1 (CFP-Stim1 (human)) [%]	Substance
20	–	CFP-Orai3-L292S (from UniProt Q9BRQ5 1-295) (natural protein)
–	35	YFP-Orai3-L285S (from UniProt Q9BRQ5 1-295) (natural protein)
